Measured values taken from the supplement of paper PMC9732359.
± gives the uncertainty stated by the source.

Experiment: protein stability index of a GFP-peptide fusion (yeast GPS) (PSI 1-4); higher = more stable; sorted into four equal gates, so the index is relative within each strain
Method in brief: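 Tiled 17-residue peptides from yeast proteins were fused downstream of GFP on a plasmid that also expresses Cherry, and the pooled library was carried in yeast. Mid-log cultures grown in leucine-free medium were sorted into four equal gates by GFP/Cherry fluorescence ratio. Plasmids from each gate were PCR-amplified and Illumina-sequenced, and reads were assigned to strains by barcodes. Each peptide's protein stability index is the sum, over gates, of the gate's read frequency multiplied by its gate number.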

| Sequence | protein stability index (doa10∆) | protein stability index (pdr5∆) | protein stability index (san1∆) | protein stability index (ubr1∆) |
| --- | --- | --- | --- | --- |
| DDDDNNESSSNTTVISD [DIS3] | 3.01 ± 0.077 | 3.24 ± 0.081 | 2.97 ± 0.049 | 2.91 ± 0.05 |
| IVPGTYIQERNPTQRPQ [RPS10A] | 3.01 ± 0.054 | 3.08 ± 0.043 | 3.05 ± 0.037 | 3.12 ± 0.034 |
| DTVIIFDTDWNPHQDLQ [SNF2] | 2.93 ± 0.064 | 3.1 ± 0.05 | 3.02 ± 0.033 | 2.84 ± 0.044 |
| LGTIESAQAETEALLLE [DIS3] | 2.92 ± 0.1 | 3.09 ± 0.092 | 3.18 ± 0.097 | 2.82 ± 0.062 |
| IYINKSVPTNSADAPNP [RET1] | 3.19 ± 0.08 | 3.2 ± 0.061 | 3.31 ± 0.049 | 3.29 ± 0.052 |
| EKELQNEIKQLGSDSSD [SRB4] | 2.95 ± 0.1 | 2.81 ± 0.1 | 2.27 ± 0.087 | 2.85 ± 0.12 |
| VKLGLNSKMPTRFPPAV [PRP8] | 2.78 ± 0.057 | 3.06 ± 0.076 | 2.85 ± 0.051 | 2.73 ± 0.06 |
| SLNEVGTLKVILNLYSS [YML103C/NUP188] | 1.93 ± 0.12 | 2.11 ± 0.29 | – | 2.4 ± 0.11 |
| LLKKATKPEVASDMSDE [CDC53] | 2.67 ± 0.11 | 2.61 ± 0.14 | 2.84 ± 0.086 | 2.89 ± 0.11 |
| FQTPFRRRREGKTDYYQ [RPL5] | – | 3.31 ± 0.12 | 2.97 ± 0.12 | 3.03 ± 0.11 |
| RASLVPGTVLILLAGRF [RPL6A] | 1.67 ± 0.054 | 1.93 ± 0.084 | 1.78 ± 0.1 | 1.75 ± 0.082 |
| DNLFGETESSVSNNEAN [SWI3] | 3.55 ± 0.16 | 2.92 ± 0.089 | – | 2.89 ± 0.083 |
| YVAPTKKEYIELDILNK [SRB4] | 2.76 ± 0.17 | 3.25 ± 0.22 | 2.74 ± 0.13 | 2.75 ± 0.2 |
| SRRPEPKKFGGKGARSR [RPS16A] | 3.06 ± 0.11 | 3.25 ± 0.095 | 3.25 ± 0.077 | 3.06 ± 0.052 |
| PSFMLKHHQLFYMLNAG [RPN1] | 1.33 ± 0.099 | 1.53 ± 0.11 | 1.18 ± 0.19 | 1.12 ± 0.086 |
| KKHLKRLAAPHHWLLDK [RPS4A] | 2.78 ± 0.14 | 2.58 ± 0.078 | 3.18 ± 0.08 | 3.01 ± 0.072 |
| AIKELNYNRIAKICALL [NUT1] | 2.41 ± 0.059 | 2.44 ± 0.065 | 2.37 ± 0.08 | 2.32 ± 0.043 |
| KFANQLHDEYLVSMRYP [RPN3] | 2.35 ± 0.098 | 2.9 ± 0.07 | 2.43 ± 0.081 | 2.76 ± 0.074 |
| ILINTARIHAQNYLKTY [PRE9] | 2.01 ± 0.085 | 1.78 ± 0.073 | 2.55 ± 0.17 | 1.89 ± 0.06 |
| SILEEKIAVLNNDKREI [SMC1] | 3.21 ± 0.071 | 3.38 ± 0.057 | 3.25 ± 0.051 | 3.33 ± 0.061 |
| AKPDARTQAGDIVSIDI [MTW1] | 3.27 ± 0.13 | 3.53 ± 0.13 | 3.55 ± 0.091 | 3.64 ± 0.098 |
| QSNEDTFLPSYMKFSNK [RRI2] | 2.84 ± 0.063 | 3.05 ± 0.063 | 3.17 ± 0.052 | 3.18 ± 0.048 |
| PFKVFLDIGLQRTTTGA [RPL5] | 1.63 ± 0.07 | 2.04 ± 0.074 | 2.23 ± 0.076 | 1.53 ± 0.053 |
| PTLQVGDLVYARVCTAE [RRP40] | 1.5 ± 0.075 | 1.85 ± 0.12 | 1.42 ± 0.12 | 1.88 ± 0.082 |
| RIHTNDNDIMNLGSRTK [SSN3] | 3.08 ± 0.048 | 2.97 ± 0.043 | 2.95 ± 0.035 | 3.03 ± 0.037 |
| AARHKQHEQGTFEKHDR [RRI2] | 3.02 ± 0.067 | 3.04 ± 0.23 | – | 2.96 ± 0.14 |

| Sequence | protein stability index (doa10∆) | protein stability index (pdr5∆) | protein stability index (san1∆) | protein stability index (ubr1∆) |
| --- | --- | --- | --- | --- |
| VTLVNGKRRMNPGPSVQ [RPS30A] | 2.69 ± 0.049 | 2.94 ± 0.031 | 2.81 ± 0.047 | 2.87 ± 0.033 |
| LQSIVNEISRNGTMINE [PCI8] | 2.93 ± 0.12 | 2.64 ± 0.13 | 2.67 ± 0.13 | 2.9 ± 0.12 |
| LNNNNNNNNTTTTTTTT [SWI1] | 3.06 ± 0.062 | 3.27 ± 0.062 | 3.33 ± 0.081 | 3.22 ± 0.054 |
| KACKTADKLVNVTQNEQ [SRP68] | 3.02 ± 0.13 | 3.04 ± 0.095 | 3 ± 0.073 | 3.07 ± 0.07 |
| DADEKSSNLYETIIEAD [YJR042W/NUP85] | 2.82 ± 0.067 | 2.95 ± 0.061 | 2.88 ± 0.057 | 3.13 ± 0.082 |
| KLLFQELMAMNITPRLY [RPB2] | 1.27 ± 0.1 | 1.39 ± 0.066 | 1.24 ± 0.13 | 1.43 ± 0.048 |
| KNGNEYNEFLYSKAGRE [QCR8] | 2.77 ± 0.064 | 3 ± 0.081 | 2.77 ± 0.06 | 2.75 ± 0.05 |
| PDRQSMDSRVAHGNILI [SRB5] | 3.14 ± 0.09 | 3.12 ± 0.064 | 3.02 ± 0.058 | 3.14 ± 0.05 |
| LRRRTASHNVRRIPKRM [POP1] | 2.98 ± 0.065 | 3.02 ± 0.062 | 2.85 ± 0.052 | 2.75 ± 0.042 |
| SGGGDSEVQRTMLELLN [RPT6] | 3.22 ± 0.18 | 2.42 ± 0.19 | – | 3.42 ± 0.066 |
| SKEDYETLKRDRKQSQA [ARP7] | 2.79 ± 0.071 | 2.9 ± 0.098 | 2.57 ± 0.093 | 2.6 ± 0.065 |
| LHQRTHKQVYPLRMETI [DSN1] | 2.28 ± 0.06 | 2.66 ± 0.042 | 2.44 ± 0.048 | 2.6 ± 0.039 |
| TPEYAAEKVKVRDELRK [UBP6] | 1.28 ± 0.068 | 1.61 ± 0.083 | 1.42 ± 0.14 | 1.46 ± 0.07 |
| NNPQVVNAITVAQQQVQ [SNF5] | 1.69 ± 0.049 | 1.78 ± 0.047 | 1.42 ± 0.075 | 1.99 ± 0.035 |
| VTLLANVRALYMRLWEI [RMP1] | 1.57 ± 0.21 | – | – | – |
| TMGGNAELELVDSLDPF [SMC4] | 3.25 ± 0.1 | 3.17 ± 0.086 | 3.39 ± 0.074 | 3.15 ± 0.084 |
| NLPPHYALFLKALRRKI [SSN2] | 2.15 ± 0.11 | 1.79 ± 0.095 | 2.8 ± 0.22 | 1.7 ± 0.087 |
| SNDNLDLISEILKWVQW [MED1] | 3.03 ± 0.057 | 2.92 ± 0.058 | 2.9 ± 0.051 | 3.09 ± 0.047 |
| KKNSSRPMPPIRGPKRR [SMD3] | 2.23 ± 0.043 | 1.86 ± 0.037 | 2.14 ± 0.055 | 2.81 ± 0.036 |
| RFRKAQCPIIERLTNSL [RPS5] | 2.32 ± 0.2 | 2.82 ± 0.26 | – | 2.07 ± 0.21 |
| DGEGKVDSISLHKIFYK [YCG1] | 2.78 ± 0.087 | 3.24 ± 0.064 | 3.13 ± 0.048 | 2.94 ± 0.063 |
| DTADEAKTLIPSLNNKI [RPB4] | 2.95 ± 0.075 | 3.15 ± 0.078 | 3.1 ± 0.063 | 3.1 ± 0.078 |
| LWGPHGLNSDAEEVRNF [ECM29] | 3.77 ± 0.29 | 3.59 ± 0.15 | 3.5 ± 0.27 | 3.82 ± 0.16 |
| QVYDLLKRFPKMSVTCN [BRR2] | – | 1.09 ± 0.13 | – | – |
| NALWILVDLVSHFSPDI [ITC1] | 1.55 ± 0.07 | 1.56 ± 0.079 | 1.67 ± 0.11 | 1.95 ± 0.051 |
| VPVKLEEIKTVDPASAP [RRP6] | 2.83 ± 0.13 | 2.56 ± 0.16 | 2.87 ± 0.17 | 2.79 ± 0.11 |
